Data published in patent US20110206696A1, “METHODS FOR INHIBITING BONE LOSS AND BONE METASTASIS” (THE WASHINGTON UNIVERSITY, priority 2010, published 2011).

How the values were obtained:
SIRP = SIRP (Homo sapiens, UniProt P78324); conditions: cited from earlier work
CD47 [1] = target: T1, CD47 (Homo sapiens, UniProt Q08722); conditions: cited from earlier work
CD47 [2] = target: T1, CD47; conditions: cited from earlier work; remark: listed apart in the source
CD47−/− macrophages = assay: In vitro osteoclast differentiation, actin ring and bone resorption assays at high RANKL dose; assay type: cell-based, mouse; conditions: RANKL increased two-fold to 100 ng/ml; 50 ng/ml M-CSF
Description: A. FACS analysis on WT and CD47-/- total bone marrow. WT and CD47-/- total bone marrow was stained for CD47 and F4/80. B. QPCR graph showing induction of CD47 transcript over the 7-day course of OC differentiation. C. Representative images of day 5 OCs cultured on bone and stained for TRAP (left panel) and cultured on bovine bone and stained for actin rings (right panel) in the presence of 50 ng/ml of M-CSF and 50 ng/ml or 100 ng/ml of RANKL are shown. D. Representative images of day 5 OCs cultured on bone and stained for resorption lacunae in the presence of 50 ng/ml of M-CSF and either 50 ng/ml of RANKL (left panel) and 100 ng/ml of RANKL (right panel) are shown. E. The pit (resorption lacunae) area was measured by histomorphometry. 50 ng/ml RANKL (p=0.04), 100 ng/ml RANKL (p=0.18). To investigate if the OC defect is cell-autonomous in CD474-/- mice, it was first determined if macrophages or OC precursors were decreased in CD47-/- bone marrow. WT and CD47-/- whole bone marrow were stained with CD47-FITC as control and F4/80 as a macrophage marker and carried out flow cytometry. No significant difference in F4/80+cells in CD47-/- bone marrow compared to WT control was observed (FIG. 3A). To test the differentiation of macrophages to OCs, we cultured whole bone marrow in M-CSF alone for 3 days to enrich for macrophages. […]

CD47−/− mice = assay: In vivo RANKL injections, serum CTX and calvarial TRAP staining; parameters: species or system mouse; conditions: RANKL injected subperiostally into midline calvaria of 8-week old mice, once a day for 5 days
Description: A. 100 μg of RANKL was delivered subperiostally onto the midline calvaria of WT (n=5) and CD47−/− (n=5) mice. Serum CTX was measured before and after RANKL injections. WT vs. CD47−/− pre-RANKL p<0.01, WT vs. CD47−/− post-RANKL p=0.74, WT pre-RANKL vs. post-RANKL p=0.03, CD47−/− pre-RANKL vs. post-RANKL p<0.01. B. Representative images of TRAP stained calvarial sections. Arrows point to recruited OCs.
We measured serum CTX pre and post-RANKL injections in these mice. Pre-RANKL injection, CD47−/− mice had lower serum CTX as we have shown before (FIG. 4A). […] Furthermore, direct visualization of OC recruitment by TRAP staining on histological sections of calvarial bone in WT and CD47−/− mice confirmed the CTX results (FIG. 4B). We conclude that a high dose of RANKL rescued the cell-autonomous OC defect in CD47−/− mice.
CTX was measured from WT or CD47−/− mouse fasting serum by using a CTX ELISA system (Nordic Bioscience Diagnostics, Herlev, Denmark).
100 μg of RANKL in a volume of 40 μl was injected subperiostially in the midline calvaria in 8 week-old mice once a day for 5 consecutive days. On the sixth day, serum was collected, mice were sacrificed and the calvarial bone was isolated. TRAP staining was performed on fixed, decalcified and paraffin-embedded calvarial bone.

T1 sequence (Q08722 19-323, species assumed): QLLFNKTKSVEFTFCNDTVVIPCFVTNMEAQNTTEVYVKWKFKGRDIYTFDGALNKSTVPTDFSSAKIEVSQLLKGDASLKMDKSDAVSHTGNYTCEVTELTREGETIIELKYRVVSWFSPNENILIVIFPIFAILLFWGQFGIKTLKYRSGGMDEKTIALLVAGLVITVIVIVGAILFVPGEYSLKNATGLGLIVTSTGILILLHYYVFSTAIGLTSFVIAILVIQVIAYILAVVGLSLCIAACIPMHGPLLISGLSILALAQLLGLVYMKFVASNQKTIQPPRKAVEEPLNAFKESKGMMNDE
Chain of SIRP (P78324 31-504, species assumed): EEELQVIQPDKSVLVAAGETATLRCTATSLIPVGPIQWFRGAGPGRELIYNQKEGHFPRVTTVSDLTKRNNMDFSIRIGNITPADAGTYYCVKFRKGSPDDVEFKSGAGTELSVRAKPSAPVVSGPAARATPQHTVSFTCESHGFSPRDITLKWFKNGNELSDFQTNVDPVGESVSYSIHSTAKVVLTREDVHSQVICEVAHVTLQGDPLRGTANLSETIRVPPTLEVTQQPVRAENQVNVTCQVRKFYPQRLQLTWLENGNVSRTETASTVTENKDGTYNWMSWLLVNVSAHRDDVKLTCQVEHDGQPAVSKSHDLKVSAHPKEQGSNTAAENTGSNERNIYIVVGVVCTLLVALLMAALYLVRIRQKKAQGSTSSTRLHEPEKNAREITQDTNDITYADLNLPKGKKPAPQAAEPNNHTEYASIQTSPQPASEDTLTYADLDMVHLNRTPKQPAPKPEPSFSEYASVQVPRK

CERVIGTGWVRC
Binding to SIRP (SIRP): binds to SIRP
CD47 activity / signaling (CD47 [1]): inhibit CD47 activity in vitro

IGWKDFTAYR
Binding to CD47 (CD47 [2]): found to bind CD47

p7N3: CD47-binding peptide from the C-terminal module of TSP1, FIRWMYEGKK
CD47 activity / signaling (CD47 [1]): blocked (or disrupted) CD47 signaling

B1: RANKL: receptor activator of nuclear factor-KB ligand, cytokine for differentiation of macrophages into osteoclasts (protein, UniProt O14788 140-317, looked up)
Tumor necrosis factor ligand …: IRAEKAMVDGSWLDLAKRSKLEAQPFAHLTINATDIPSGSHKVSLSSWYHDRGWAKISNMTFSNGKLIVNQDGFYYLYANICFRHHETSGDLATEYLQLMVYVTKTSIKIPSSHTLMKGGSTKYWSGNSEFHFYSINVGGFFKLRSGEEISIEVSNPSLLDPDQDATYFGAFKVRDID
modifications: GST tag
OC differentiation of CD47−/− cells (CD47−/− macrophages): OC differentiation defect was largely rescued
OC activation as measured by serum CTX, WT vs CD47−/− mice after RANKL (CD47−/− mice): not significantly different
